Experimental data as given in patent US20230059341A1 (TESARO, published 2023).
Where two headings read alike, the source gives them in different places.

Experiments:
[1] = biological target: T1, Neonatal Fc Receptor (FcRn) (UniProt P55899 24-297; P61769 21-119, limits assumed); experiment: FcRn binding assay, BIACORE (SPR)
[2] = biological target: T1, Neonatal Fc Receptor (FcRn); experiment: FcRn binding assay, BIACORE (SPR); remark: listed apart in the source
[3] = biological target: T2, human PD-1 on PD-1 effector cells (Jurkat T cells, Promega #J1155) (human, UniProt Q15116 25-288); experiment: cell-based or functional assay
[4] = biological target: T2, human PD-1 on PD-1 effector cells …; experiment: cell-based or functional assay; remark: listed apart in the source
[5] = biological target: T3, PD-1 protein constitutively expressed on engineered CHO K1 cells (UniProt Q15116 25-288, limits assumed); experiment: MSD potency assay: competitive binding on CHO K1 cells expressing PD-1, inhibition of PD-L1-mFc binding, ECL; percent of reference material
T3 construct: whole, on cells; also called programmed cell death protein 1
Procedure: (§1) The Meso Scale Discovery (MSD) potency assay employs engineered CHO K1 cells constitutively expressing the PD-1 protein. […] The readout is measured using a specific detection antibody mixture that releases an electrochemiluminescence (ECL) signal that can be quantified.

[6] = biological target: T2, human PD-1 on PD-1 effector cells …; experiment: cell-based or functional assay; remark: listed apart in the source
[7] = biological target: T2, human PD-1 on PD-1 effector cells …; experiment: cell-based or functional assay; remark: listed apart in the source
[8] = biological target: T1, Neonatal Fc Receptor (FcRn); experiment: FcRn binding assay, BIACORE (SPR); remark: listed apart in the source
[9] = biological target: T1, Neonatal Fc Receptor (FcRn); experiment: FcRn binding assay, BIACORE (SPR); remark: listed apart in the source
[10] = biological target: T1, Neonatal Fc Receptor (FcRn); experiment: FcRn binding assay, BIACORE (SPR); remark: listed apart in the source
[11] = biological target: T3, PD-1 protein constitutively expressed …; experiment: MSD potency assay: competitive binding on CHO K1 cells expressing PD-1, inhibition of PD-L1-mFc binding, ECL; percent of reference material; remark: listed apart in the source
Procedure: as §1

[12] = biological target: T3, PD-1 protein constitutively expressed …; experiment: as above; remark: listed apart in the source
Procedure: as §1

[13] = biological target: T2, human PD-1 on PD-1 effector cells …; experiment: cell-based or functional assay; remark: listed apart in the source
[14] = biological target: T1, Neonatal Fc Receptor (FcRn); experiment: FcRn binding assay, BIACORE (SPR); remark: listed apart in the source
[15] = biological target: T3, PD-1 protein constitutively expressed …; experiment: MSD potency assay: competitive binding on CHO K1 cells expressing PD-1, inhibition of PD-L1-mFc binding, ECL; percent of reference material; remark: listed apart in the source
Procedure: as §1

[16] = biological target: T1, Neonatal Fc Receptor (FcRn); experiment: FcRn binding assay, BIACORE (SPR); T0 (exposed to H2O2, no incubation)

T2 sequence (Q15116 25-288): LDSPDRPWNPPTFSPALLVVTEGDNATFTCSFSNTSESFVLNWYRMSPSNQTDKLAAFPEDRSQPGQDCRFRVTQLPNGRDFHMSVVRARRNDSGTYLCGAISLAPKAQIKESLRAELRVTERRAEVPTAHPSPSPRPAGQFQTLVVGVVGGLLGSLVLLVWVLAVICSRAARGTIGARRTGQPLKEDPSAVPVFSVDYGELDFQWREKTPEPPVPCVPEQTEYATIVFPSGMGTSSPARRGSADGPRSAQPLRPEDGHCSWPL
T3 sequence (Q15116 25-288 limits assumed, change not shown): as the sequence (Q15116 25-288) above
T1 sequence (P55899 24-297 limits assumed, chain 1 of 2): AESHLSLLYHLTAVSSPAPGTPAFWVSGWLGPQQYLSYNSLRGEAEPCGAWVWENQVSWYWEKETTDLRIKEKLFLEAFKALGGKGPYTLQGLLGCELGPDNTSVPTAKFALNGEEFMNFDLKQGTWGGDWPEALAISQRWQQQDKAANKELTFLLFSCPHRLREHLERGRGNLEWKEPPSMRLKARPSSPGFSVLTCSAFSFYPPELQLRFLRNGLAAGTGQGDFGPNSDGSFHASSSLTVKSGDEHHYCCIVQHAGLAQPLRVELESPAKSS
T1 sequence (P61769 21-119 limits assumed, chain 2 of 2): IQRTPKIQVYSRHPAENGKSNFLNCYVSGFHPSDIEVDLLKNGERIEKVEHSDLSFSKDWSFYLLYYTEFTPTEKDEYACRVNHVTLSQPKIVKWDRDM

Binder | Kd [1] [nM] | Kd [2] [nM] | Relative Potency, Cell-Based Bioassay [3] [%] | Relative Potency (Potency by cell-based bioassay) [4] [%] | Relative Potency, MSD Binding [5] [%] | Relative Potency, Cell-Based Bioassay [6] [%] | Relative Potency, Cell-Based Bioassay [7] [%] | Kd [8] [nM] | Kd [9] [nM] | Kd [10] [nM] | Relative Potency, MSD Binding [11] [%] | Relative Potency, MSD Binding [12] [%] | Relative Potency, Cell-Based Bioassay [13] [%] | Kd [14] [nM] | Relative Potency, MSD Binding [15] [%] | Kd [16] [nM]
Dostarlimab, Unstressed Control (antibody, human IgG4 S228P, kappa, percent of population: Met 248 oxidation 3.0; Asp 261/266/276 isomerization 1.0; Asn 311 deamidation 6.0; Asn 380 deamidation 8.4; Asn 430 deamidation 1.2; Lys 443 clipped 97.8, Control of the forced degradation study (DS batch #1); HMW 0.9%) heavy: not shown light: DIQLTQSPSFLSAYVGDRVTITCKASQDVGTAVAWYQQKPGKAPKLLIYWASTLHTGVPSRFSGSGSGTEFTLTISSLQPEDFATYYCQHYSSYPWTFGQGTKLEIKRTVAAPSVFIFPPSDEQLKSGTASVVCLLNNFYPREAKVQWKVDNALQSGNSQESVTEQDSKDSTYSLSSTLTLSKADYEKHKVYACEVTHQGLSSPVTKSFNRGEC | 2140 | 2140 | 98 | 98 | 88 | 98 | 98 | 2140 | 2140 | 2140 | 88 | 88 | 98 | 2140 | 88 | –
Dostarlimab, H2O2 treated, T0 (exposed to H2O2, no incubation) (antibody, human IgG4 S228P, kappa, percent of population: Asn 137 deamidation 1.3; percent of population: Met 103 oxidation 1.2; Met 248 oxidation 47.1; Asn 311 deamidation 6.8; Met 354 oxidation 16.7; Asn 380 deamidation 10.7; Asn 385 deamidation 1.7; Met 424 oxidation 29.0; Lys 443 clipped 97.2, 0.1% (v:v) H2O2, quenched at once with methionine; also called H2O2 T0; Peroxide (H2O2) Oxidation) heavy: not shown light: DIQLTQSPSFLSAYVGDRVTITCKASQDVGTAVAWYQQKPGKAPKLLIYWASTLHTGVPSRFSGSGSGTEFTLTISSLQPEDFATYYCQHYSSYPWTFGQGTKLEIKRTVAAPSVFIFPPSDEQLKSGTASVVCLLNNFYPREAKVQWKVDNALQSGNSQESVTEQDSKDSTYSLSSTLTLSKADYEKHKVYACEVTHQGLSSPVTKSFNRGEC | – | – | – | 94 | – | 94 | – | – | – | – | 95 | – | – | – | – | 4380
Dostarlimab, photo degraded, Vis light, 25° C., 1 week and UV light, 25° C., 1 week (antibody, human IgG4 S228P, kappa, percent of population: Trp 50 oxidation 4.8; percent of population: Met 248 oxidation 33.4; Asp 261/266/276 isomerization 1.0; Asn 311 deamidation 6.4; Met 354 oxidation 10.9; Asn 380 deamidation 9.5; Asn 385 deamidation 1.3; Met 424 oxidation 27.0; Asn 430 deamidation 1.2; Lys 443 clipped 97.8, Mixture; HMW 3.3%; also called Photolysis) heavy: not shown light: DIQLTQSPSFLSAYVGDRVTITCKASQDVGTAVAWYQQKPGKAPKLLIYWASTLHTGVPSRFSGSGSGTEFTLTISSLQPEDFATYYCQHYSSYPWTFGQGTKLEIKRTVAAPSVFIFPPSDEQLKSGTASVVCLLNNFYPREAKVQWKVDNALQSGNSQESVTEQDSKDSTYSLSSTLTLSKADYEKHKVYACEVTHQGLSSPVTKSFNRGEC | – | 2490 | – | 90 | – | – | – | – | – | – | – | – | – | – | – | –
